Laboratory results from a protein production outcome set (Wang et al. 2014).

Assay: label from the status in PepcDB records

Row | Sequence | protein production
1 | MKKTLILILCLFLCTVSFARKRVKVACVGNSITYGIGVSDPDKESYPARLQQMLGEGYTVERFGKPGATLLNKGHRPFMQQKEFKDALAFAGDVVVIHLGVNDTDPRDWPNYRDFFIADYRALIDSFRVANPECRILIARLTPIADRHPRFESGTRDWHDEIQLAIETIAKYAQVQLIDFHAPLYPYPFMLPDAVHPDKEGAAVLAKTVYEGITGDFGGLQMPEIYTDNMVLQHGRLLTIQGKADAGEKVTVSIDRQKLQAVTGADGKWAVDVRPLKAGGPYTLTVSTEKRKLVYENVLAGEVWLCSGQSNMEFYLNWSATAAQDVPQAANSNIRFYDMKARWRTDAVEWDASVLDSLNHLQYYKDTRWTVCSPETAGNFSAVAYYFGKKLQDSLQVPVGLICNAIGGSPTEAWIDRSTLEYRFPAILRNWMQNDFIQDWVRGRAALNVKQSSNKLQRHPYEPCYLYESGIRPLEQFPVKGFIWYQGESNAHNREAHEKLFGLLVESWRKNWGDAELPFYFVQLSSIDRPSWTWFRDSQRRLMAEIPHTGMAVSSDRGDSLDVHPKQKREVGERLAAWALNKTYGYKNVIPSGPLYKSVVFSGGAAYISFDYAEELSTSDGKSLRTFEVAGDDGLFYPAQAVVENGKIKVWSDKVKEPETVRYGWQPFTRANLVNGAGLPASTFRAE | failed
2 | MKADKWNHVETARYFRDLQENEVRTMHYLGLAYVVLSRRPNLQLKVPLSTQNYEDGAIVGAGERGGYALQLLFTCAANYPLARPLVEIVEKRNVSDAFEQVLRKEIDLILEEHLGLQMIVPVVTRLQITLNTEMKR | not failed
3 | MNSCILQATVVEAPQLRYTQDNQTPVAEMVVQFPGLSSKDAPARLKVVGWGAVAQELQDRCRLNDEVVLEGRLRINSLLKPDGNREKQTELTVTRVHHLTLDSATGILAQEESEVSYGRSAAASAPVKASPVVTPTAAPDVDYDDIPF | failed
4 | MDGRMDATTRMTLSVGALMFRMIWFPAPHWTHAARMTASTFRRYGFGLLSLVLLVLPSRLAAQDYEVPTVTDTYALQNARVVQAPGQVLESATVVVRDGVIDAVGPDAEVPYDARTIEADSLVVYAGFIDGLSHAGVEMPEGEDTDVEDPGNPPPDAAGIQPDRSVRPFLSPDESALQSLRKAGFTLGHVAPEGQMLPGASAHVFYGGETANDMVLEAGPTLFAQLQTADGYVYPATGMAVIAQMRQLYREAERRQQLEAAYERDPTGRPQPPQDPQHSALFSVLDGEQPLAFYADEALSLHRILALHQELDFPLVLAGLGESHELVDALQAVDAPLFLTLDLPEEPTRSTGQDTTTADTTSTPSRYYNPDLQVPSHETVAEEEENLELRHAMERQDYLETAATLHDAGLEFGFTTREADPGDVRGNLRTMIDQGLPEQTALAALTTRPAAQLGLDDRLGTVEAGKIANLVVTDGSYFAEDTKVTHVFVDGRLYDYSADGSDEGEVSGDVSAVLGTWSYTLDTPQGELSGEVTIEGDQSGLDGTFVGPQGDEQPLQSVSFDGTTLSFTVDSPQGGSVSVSVTVEGDTFDGSASTSGGSFPISGERTSGPNATQK | failed
5 | MAEPGIDKLFGMVDSKYRLTVVVAKRAQQLLRHGFKNTVLEPEERPKMQTLEGLFDDPNAETWAMKELLTGRLVFGENLVPEDRLQKEMERIYPGEREE | not failed
6 | MESPTQTSEHIESMTEFLVKHYPDQLREISLSSDPKLHYPLFIEYAELVDDNPSLARQVFSDPEHYLRQFDDSAILAHKIALEHMKKFEEKIGIEKRFIHVRINTSGSPLERSPETFPSIGRVRVKHRGILMMLKGTVIRSGAVKMYEGEKMYRCRKCKHMFPIFPELESINSIVKPPFCPSQRSKACEGTNFDPVDDTVTRHDYQEIKIQENTQVLGVGVIPRSILVVLKDDLVDNVKAGDDVVVSGILTSKWSHDLKDVRCDLEPMLIANHVRRTNELKSEIDISDDLIEKFKNFWSHFRDTPLKGRNAILRGICPQVFGLFTVKLAVALTLIGGVQHVDASGTKVRGESHLLLIGDPGTGKSQFLKFAAKLSNRAVITTGLGSTSAGLTVTAVKDGGEWMLEAGALVLADGGLCCIDEFDSMREHDRATIHEAMEQQSISVAKAGLVTTLSTKTIVFGATNPKGQYDPDQYTKNPEWDAVVSSHILAEVQIEQDREVDDLTTIWPLPMLQRYIQFVKKNFRPVLSKEAEEIISSYYRLQRRSSTHNAARTTVRMLESLIRLAQGTSSVIVFINQNTPKTGTKERILMVLWCHAAHARLMFRNEVTRLDAITAILCIESSMTISAIVDSMGNALHSNFSEEPDQECILFRH | failed
7 | MKDTLKIGLLGLGTVGTGVLTLLKEHQEKISQVTGMNVVIEKAFVRNLETKQAQAEEYGLSLTTSIDDILEDKEIQIVVELMGTIEPAKTYIMKALEKGKHIVTANKDLLAQHGSELVALAQKHHCDLYYEASVAGGIPILRTIANSLAADNIQQVLGIVNGTTNYMLTQMVSADKSYEEALAEAQALGFAEADPTNDVDGIDAAYKMVILSQFAFGMNVSLPQVDIRGIRGLSLDDVAMAKQLGYEIKLIGSAEQNENSISVEVAPMLVNQKHPIASVRNEYNAVFIKSAGVGESMYYGPGAGAKPTATSVVSDLITIAKNIRLATTGHMFNSYQHKTQLTSSENVFGQYYFSLDVPDTPGQFLQLTQLMTKAEVSFDQLVQQKSDGQRARIVAITHQISKAQMQQVVIAIQNTEAFQLLNVMKVIGDE | failed
8 | MYKTIIMPVDVFEMALSDKAVRHAEFLAQQDGVIHLLHVLPGSASFTMSRFTADLRRFEEHLQHEAETRLQTMVSHFSIDPSRIKLHVRFGSVRDMVNELASEINADVVVIGSRNPSISTHLLGSNASSVIRHAHIPVMVVR | failed
9 | GWKVEYMAIADPQTIDQTPIVIVGGAFQNFNSYKYCVEQLFHCGPVILIDLPSMGANQQITNRDSGVSAAVLELPDLAKILVEWLDIIKIQKISMMGMSLGSVVASCFADLRPDMIDRLVLMGVMQKTRKSWRMILEESLKLMQENRMEEFGQAVILYLVNHAKLDQTRMSPTAKRLFFRQMAEFNPTERLRYEINCQRLLRLKDVPIPQCKTLVAAGQYDSFTLPFENANFALQCPDVEFALIANADHVPQLQRRKETMRLFETFLNH | failed
10 | MYAIAEDTLPARVLKELLLYRRRYPEHRQSASEADEIRRIEQVQLPRIAAFIEAGEPIEFVLPAFPAKSPNPGKVLDSRPDMAERLSLSFLNHLCQRIQLFYAPGAKITVCSDGRVFGDLVRIGDAHISAYQDALRLMIEEIGATHIGVFNLEDVRAFEAQRDNHEQLRQLLIGGYAEPLESIRETLLASEEGLLLYRAITRFLYEDGLTPDYQGSKTALQRDAKERAYGVIQRSWAWGALLADQFPRAIRLSIHPQPADSLKFGIHMMPTRDDWLTPWHGVAVNTEDRFVLMKRSEVLELGGELVQINGQPSHYRLPARAARRAAVALEHHHHHH | failed
11 | MDMFGVAVLIFLVTDPFGNIAVFLAALKGVAPGRRLRVAFRELAFALGLLLLFLTLGEHILSGLGLSREATGIAGGIILFVIAMRLIFPSPQGLLGEVPDGEPLLVPLATPAVAGPSALAMLITLRTTFDGPLWELYLAVVLAWAATALILLQAAFLQRFLGPRGLTAIERLAGMLLIMLSVDMLLDNLRSVLHIAA | failed
12 | MKRSSPVILVSEDEYGKFDESTNSILVKGKMHHLGISRVIEPGDELIVSGKSFIVSDFSPMYFGRVIRRNTQIISEIDASYIIMRCGLRPGMDILEVGVGSGNMSSYILYALNGKGTLTVVERDEDNLKKAMDNLSEFYDIGNVRTSRSDIADFISDQMYDAVIADIPDPWNHVQKIASMMKPGSVATFYLPNFDQSEKTVLSLSASGMHHLETVELMKRRILVREGATRPASDDLTHTAFITFAIKKSGMVYRI | not failed
13 | MSPASGSVISCAKVLDDYFYGSSNTVEALLLNSFETPALLFTTETSNLLTDIREDRSRHIEKISPYLLLTAGILSGFNPCLLAVMAFLASVNLTQKGRRKEMLKITLGFSTGIFTMHMLAGLSILGTVNFLPELRSYFSEIAVVMTALLGFWHIYDAYWLRKHAKTTFRTPQPLKDFMSRMDEKNLLLLSFLAGGMFSLVKAPCVGAVYLSLLSLLAMKTDIVRGIEYIWIFNLGLLLPVVLLGLLLAFGLSPKTVTEFRERKRVGIRLITGSILISLALMMQFRIL | failed
14 | MNSLSSLAAVLLMAGRSTRMGQPKALLPLGGMPLCRHAAQTLVEAGYGEVWAVLPPGETGDAVRAALQGLPLRWVTNPQPAQGLLSSFQAAGEALWAESAAPAVVFTLADMPLVRRDTHQALGTVFGAEQPAAIITRYGEVAAPPTLLRRDLLPRLHEFPPSDHGPRTLLRELGRELKKIDRPAAELLDIDTPEAWAQAQQLFAEVTPGAQDGP | failed
15 | MEISTKTLHFIEEHREDDTRTLALQSKKYPDVDMAAAVTQIAGRQVAARKIPSWYPVSALWYPPHLSMEQCSSEATALYKASLLEGDTFADLTGGFGIDCSFISRNFKQADYVERQSGLCELALHNFPLLGLGHIRIHNRDGISYLQEMLPVDCLFLDPARRDGHGGKTVAISDCEPDVTVLEPLLVDKAKKVMVKLSPMLDLSLALNELKTVRAVHIVAVNNECKELLLILQKESVSSEVSIHCEHIAGNGESRHYTFTLKQEKTSPCLLADEVGTYLYEPNAAILKAGAFRSLTQTYPVAKLHLNSHLYTSVSLVPDFPGRRFRVEAVSGFGKKELKAFLMDMDKANITIRNFPLSVAELRKRLKLKEGGDDYIFATTLSGGQKVLIRGKKC | not failed
16 | MSAKDLPNGGPRLIDRYLLRLLLWPLAACLGVTVIALLLERILRLLDVLSQSSARFGYVAQLAANLVPHYLGLALPVAFFVALFIVIVKLSDGSEIDALLASGQSLERIAAPFVAVGVLLSVFSIIVFGYMQPYSRYAYRAVMHAAVNAGWNGRLAGGAFIDDKGSLLTADSADIAGQRLTRVFIRRLDAKGQEEIITAASADLKMDPDGKTITMDLRDGRRIAHDAYGTYRNLAFTSLTTQTPLSAAAVLLRDRGGDERELTMGELRREAKSPDPVVSKGTLLSEFYGRLARAAFLPFLPLLAFPLGLASKRGNRAPGLIMAGLLLLAFQHSLLLGQGMAKAGKADAFAAIWIPFTLFAALSVWLFVGSRTRPGDTPVSRLVRRINTLVTHALRLLPQPKKRQAA | failed
17 | MLDCIVVGAGPAGGSAAYHLARRDRQVLLLEQAQLPRQKACAGGVSPQVARWFDCDLRSVVDHGVDRLRFTWKLGDPVEAELPSEEPFWMVRRDRFDHFLVEQAANLGARIEDGAAVTAVSAEGDGWLVTVGDRAYRSRTLIAADGARGPLAQWLGFPSQKRRYAQACELDVPLPARPDSTAHFEFGLVRNGYIWVFPKSDGYSIGIGTFRGNDATDFRGLLETYLAGFGVSADLDRIVPHPLCVWDGSQPLHRGSALLVGEAASLTDPFTAEGIRPALLSGMRAAEAIDRAIAGDRNALAGYSRTIQQEWGDSMAWAKRISSVFYRVPNLGYQIGIKRPTAPQRMAQILVGELDYSDIATRVIRRLTTGFLPGMR | failed
18 | MTGADHAHTRRRPLTGPLVKSLVFVVVTALATTVLGLSVAGTSVDSGTGTSTYKALFTDVTGLVDGDSVRISGVTVGEVTDVRVVDRRTAQVTFTVRDDRTLPRSTTAAVKYLNMVGQRYVSLGRGSGDLAGTLPEGGTVPLDRTTPALDLTLLFNGFKPLFEGLSPKDVNDLAGSIVQVLQGEGATVDSLIRHVGSLGTTVAAKDKVIGEVVENLTTVLDTLNDREDGFDDLVVTLQKLVTGFNQDRKPLGEAVAAMGDLTTVTAGLLEDGRAPLKKDVQELGRLSAGLGEHTPQIEDFLEKSPAKMTALARLSSYGSWFNLYLCEARVSGVSTSDGSKPPTGIAITESRCRGLEHHHHHH | failed
19 | MSIKAGFDDRALARVEAAIRADVESGIYDGAVIKVARHGQIALDATIGFSNRRAGAAMREDAVFKVLSLTKAFTTTLVLEAIDLGLLSLTTRVVDVIPEFWGRDLFRSGRKERVNVGHLLTHRAGLSPTPQPLPYDQLHNFSETIQAICALDVVGEPGKAFNYSPTVNHALLGEMVRRVHGAASLAELMDQRLFSRLGMSSTSLGPTSQIRDRLVPLTSDFPEGGWLTNADIKAVADAIEAPNSQMPWVGAMTSAQDVFVFAEMLREQGTVRDERILSPAVVRKATTLQTGDAINDLYKLLADARHWDLPAGNMGLGFALGGDGLTVSQFGTLTSPGTFGNFGAGSTLFWVDPESQITFVCLTAKVMEESENILRFQRLSDLVASAAL | failed
